Test: soluble on expression in E. coli; label from the status in PepcDB or PDB records

| Sequence | soluble on expression in E. coli |
| --- | --- |
| MSLNTQLAIIRSKGKEHICYREEECFVDVSYPMVTFTKGEDDFEIVKCDHPSMEETFLYQESRLSIVIEMYHNGWPALSLKDPVTHEIYTVLTVNLEDKAAFSLPDRAFVDINNNPDAMEFLLSNKLAEDTGYRRQSGWVSYPMVTLNLPTFYRLDPHAFSAILNIREGHHHHHH | soluble |
| MSLNYVAEIDLLAEELAQELEIEGGETYGILAAHLRSLYGIHITRTEAAGGLIRHFDPAGKTLALSSYMAAPTRCFQLALQIAQLHAGATVDRVLAGAGFRNAEAAEICRIGLHNYFAAALILPYGQFHRAAQELRHDLELLAVRFGASLEQVAHRLSTLQRPGMKGVPIFFAKIDRAGNITKRHSATRLQFARFGAACPLWNIHQAFESSDRIVRQLAETPDGVRYLSIATQIEKAGAGFNTERPRYAIALGCEISHAQNFVYADTLDLGNAASFKPIGISCRVCERVDCVQRAVPPLKRKLHFDHLSRGALPYQIAEGHHHHHH | not soluble |
| MSLPAKTLVQAAANSGLRAVSVRHSSQAPKVALLGAAGGIGQPLGLLLKQDPLVAHLALYDVVNTPGVAADLSHIDSNAKVTAHTGPKELYAAVENADVIVIPAGVPRKPGMTRDDLFNTNAGIVRDLAAVIAKASPKALIAIITNPVNSTVPIASEVLKKAGVYDPKRVFGVTTLDVVRSQAFVSELKGHDASKTVVPVVGGHAGITIIPLLSQVKPSTKFSEEEISKLTPRIQDAGTEVVNAKAGAGSATLSMALAGARFANALVRGIKGEKNVQCAYVASDAVKGVEYFSTPVELGPNGVEKILGVGKVSAYEQKLIDASVPELNKNIAKGVAFVKGN | not soluble |
| MSLPAYKRVLLKLSGEALMGDDAFGINRSTIEGMVNDIAEIVRLGVQVAVVIGGGNIFRGVAGGAAGMDRATADYMGMLATMMNALALQDAMRHANIEGRVQSALRMDQVVEPYIRPRAIRQLEEGKVVIFAAGTGNPFFTTDTAAALRGSEIGAEIVLKATKVDGVYTADPKKDPSATRYTTISFDEAISRNLQVMDATAFALCRDQKLPIKVFSIQKPNALKRVIMGEDEGTLEGHHHHHH | soluble |
| MSLPEDYWSAKDYQRNASFVPKLTKDIVKRINLSSSDELLDLGCGDGVLTNELVSQCRRVVGIDASPDMIKAARELGLNAYVIPGEKLLDASEIPSESFDVVFSNAALHWIMRQPKNRPIVMKGVSRVLRTKGRFVAECGAFGNVSEVVGSIYSILLALGATKEQIDQANPWFFGSEDDYTRMLEEAGFHVEYVENISRPTLLNKDVREWLDTFAQHFYHAFPQWKDIIRETVYNALLVTDCRSDGKWFLQYRRLRFVAHKEEGHHHHHH | soluble |
| MSLPRARSTIAMCLALTALLGACGRSPQECMERAMYFESNRSSRDGMVAVGSVVMNRVESGQYPKSVCGVVGQRFQFAPRIMSRRMDSRSLPLVRETARSVLKGERHPMIGDAMFFHTAGHRFPYDNMHYVLVTGGNAFYERRPSALVTQPVPPQPMEGLTGWRGW | not soluble |
| MSLPRITALRTIRLPERPKLIWVEVETEDGLTGLGETFRGAQAVEAVLHEQTAPAIIGRAAENITSISSELLNPYVGFGSSSAEVRAASAVDIALWDLAGQRAGVPLHVALGGAARDRVPVYATCAGYDFNTSLGGRRSIGSAELSTGPYDDQVAFMRDAGVLAESLVAEGYAAMKIWPFDDFASITPHHISLTDLKDGLEPFRKIRAAVGQRIEIMCELHSLWGTHAAARICNALADYGVLWVEDPIAKMDNIPAVADLRRQTRAPICGGENLAGTRRFHEMLCADAIDFVMLDLTWCGGLSEGRKIAALAETHARPLAPHDCTGPVALMAGLHLALHAPTAIFQEVVRASLATWYADLVDHLPVIQEGIALAPTRPGLGTALLPHVRKIAGAVVRESGKPREGHHHHHH | soluble |
| MSLQHMYRCARVQGLDTSEGLLLFGKEHFYVIDGFTMTATREIRDIETLPPNMHEPIIPRGARQGPSQLKRTCSIFAYEDIKEVHKRRYLLQPIAVEVFSGDGRNYLLAFQKGIRNKVYQRFLAVVPSLTDSSESVSGQRPNTSVEQGSGLLSTLVGEKSVTQRWERGEISNFQYLMHLNTLAGRSYNDLMQYPVFPWILSDYDSEEVDLTNPKTFRNLAKPMGAQTDERLAQYKKRYKDWEDPNGETPAYHYGTHYSSAMIVASYLVRMEPFTQIFLRLQGGHFDLADRMFHSVREAWYSASKHNMADVKELIPEFFYLPEFLFNSNNFDLGCKQNGTKLGDVILPPWAKGDPREFIRVHREALECDYVSAHLHEWIDLIFGYKQQGPAAVEAVNVFHHLFYEGQVDIYNINDPLKETATIGFINNFGQIPKQLFKKPHPPKRVRSRLNGDNIGISVPPGATSDKIFFHHLDNLRPSLTPVKELKEPVGQIVCTDKGILAVEQNKVLIPPAWNKTFAWGYADLSCRLGTYESDKAVTVYECLSEWGQILCAVCPNPKLVITGGTSTVVCVWEMGTSKEKAKPLTLKQALLGHTDTVTCATASLAYHIIVSGSRDRTCIIWDLNKLSFLTQLRGHRAPVSALCINELTGDIVSCAGTYIHVWSINGNPIVSVNTFTGRSQQIVCCCMSEMNEWDTQNVIVTGHSDGVVRFWRMEFLQVPETPAPEPVEDLEMQEGCPEAQIGQQAQDDDSSDSETEEPSVSQDPKDTSSQPSSTSHRPRAASCRATATWCTDSGSDDSRRWSDQLSLDEKDGFIFVNYSEGQTRAHLQGPLAHPHPNPIEARSYSRLKPGYRWERQLVFRSKLTMHTAFDRKDNTHPAEVTALGVSKDHSRILVGDSRGRVFSWSVSDQEGHHHHHH | not soluble |
| MSLQIHALFPTAVATAQLRLDPLEMAAQLQTLLMLRGADEGNPNSGCAWTGDLNGVWQLHRHPDFSGMTDRVVEQAWAYLSAVGFDQAKLALHVQRCWPVLSDWDQMVGRHHHPNAHLSAVLYLSGSGSGEDGVLRIHAPSQPNELVPGSAAGHGGPIAAGHPLNQPHWDLAPQPGLLVLFPSRLDHSVLANGDPELLRCSISFDFVLTAPVDGDPPEYLAPHPSLWTPQPLEVNEGHHHHHH | soluble |
| MSLQMYAGWRVVVDKNCIKIVSSNLAAQKLIEKQHNARLDTIAAKQQKVELYSVSMATMKELYKLSMQNISGFGTESLYYKEIGSCALDIIRNVPELIKTVSKAKFTNQLYCLTELGGLVMETQQLVGNFVNIVNNAKIPNPLKGEGTAERKSDGYNILDRYERMSLANSIYTNLNEIRYKVDGMMLMAQYATLNDLCFAINPEGWANVMTMRNQVDGLVSDWNGLVATNEGHHHHHH | soluble |
| MSLQRARCYLIGETAVVLELEPPVTLASQKRIWRLAQRLVDMPNVVEAIPGMNNITVILRNPESLALDAIERLQRWWEESEALEPESRFIEIPVVYGGAGGPDLAVVAAHCGLSEKQVVELHSSVEYVVWFLGFQPGFPYLGSLPEQLHTPRRAEPRLLVPAGSVGIGGPQTGVYPLATPGGWQLIGHTSLSLFDPARDEPILLRPGDSVRFVPQKEGVCEGHHHHHH | not soluble |
| MSLQTFVIVGHVIPNNDMSPTLNKGDRVIVNKIKVTFNQLNNGDIITYRRGNEIYTSRIIAKPGQSMAFRQGQLYRDDRPVDASYAKNRKIKDFSLRNFKELDGDIIPPNNFVVLNDHDNNQHDSRQFGLIDKKDIIGNISLRYYPFSKWTIQFKSEGHHHHHH | soluble |
| MSLQTPDTATTAPYLLAGAPTFDLSISQFREDFNSQNPSLPLNEFRAIDSSPDKANLTRAASKINENLYASTALERGTLKIKSIQMTWLPIQGPEQKAAKAKAQEYMAAVIRTLTPLMTKTQSQKKLQSLLTAGKNKRYYTETEGALRYVVADNGEKGLTFAVEPIKLALSESLEGLNKEGHHHHHH | soluble |
| MSLQTSPDMFINRELSWLRFNSRVLDQCSKNLPLLEKLKFIAIYCTNLDEFYMIRVAGLKQLFSAGVNASSSDEMTPLQQLKAIRKYLHQEKELLERYFNEITSELEKENLFIKHYENLDENLKQKCDEYFFSNIFPVIVPIAVDATHPFPHLNNLSFSLAVKICDKAHPELVKFGMIRIPRVLPRFYEVSANIYVPIESIVHQHAEEIFPGYKLLASAAFRVTRNADMVIEEEEADDFMMILEQGLKLRRKGAFVRLQIQKDADEQIVEFLNTHMKIFHKDVYEYSILLNLPSLWQIAGNKTFTHLLSPLYTPKTLPPFDENLSIFDAVEKEDILIIQPFESFDPVYKFIKEASKDPEVISIRMTLYRVEKNSNIVQALIDAASDGKQVTVMVELKARFDEENNLHWAKALENAGAHVIYGITGFKVHAKVSQVIRKQGDKLKFYMHLSTGNYNASSAKIYTDVSYFTSKAEFARDTTSFFHILSGFSKNRRLQTLSMSPNQIKEKVLEMIRIETSKKNEGVIVAKMNSLVDSDIIQALYEASMEGVQIDLIIRGICCLKPDEEYSKNIRVRSIIGKYLEHARVFYFKHSEPNYFISSADWMPRNLERRLELMTPIYDERSKAKLAQFLRLQLSDNVLAYELKNNGEYEKIPSSEKIIDSQQTLEEYVSKIYKTLKKDTDQSRATHLASKLFKENEGHHHHHH | soluble |
| MSLQVLDRVELYLVKTPLPAPHAPSWIPGTIRTHVSMCIVRFITDDGVEGWSGFPAAGRERAGLGDLLAGLFLGQEAGDIDKLSERIQIMAAGGNFNWWLEPAFWDIKAKSAGLPLYKLLGGTDDRIRLYASSGELRDPGARREEAEARLAEGFDTMKIRVHDFDEAVDIDHISDIARHMQGRMRISVDCNQAFRLTQNGDAPLWSLDRAKRFVDAAADVGLAWVEEPLFGEWHEEIARLTTYSRVPVAGGELHVMGYRELARMMKMGCYNIFQPDAMWAGGITQCLKVAALCWQEGIRFTPHCWSNGFGFIANAHVFAASGFAGEELFEYPLSPPGWTPEGRDQIFSEPFLHENGWFAMPQTPGLGFEINQETLEKHGQCFFRASRNSTHWMPEALPAEGHHHHHH | soluble |
| MSLQYFKVRDEIRSMVSDSVDEIVDGVSKTTAEVINGRKSIAQYATSLIENNPEPDNVRTIISQPLIKNTFLLVGFGLEKDGSNINNDPSWNPGPTWDPRVRPWYKDAKNAGKLVITAPYADSASGEILVSVATPVKDSATGQFLGSIFYDVSLAELAELVNEVKLFDAGYVFIVSEDGTTIAHPKKEFNGKPMSEFLGESKINVDTHQVIINGKPYAVSFSDVEGEDWYVGVVIDEEIAYAALDELRRSEGHHHHHH | soluble |
| MSLRASVAATKQKRFVAVDIETTGLNTESDQILSIGAVKHDGIEFYRLIKQDIDVPKQIVELTGITSEMLSKEGVPLQDALEELTDFVGNVPIVGYNFRFDSVFLNRDYRKCGMQELKNEIKDLLPVVKRREKFLDNYKLQTVLSNYGIENKVPHNAVSDARATKELAMKLIKNRILVIEGHHHHHH | soluble |
| MSLRDAKTWFTDTVLKDQNGRELRFYSDVLKDKVVMLNVIFTHCTDACPLITRKLREVREAMGPALAAQVTFVSISSDPLNDTPEALKAFAAKQGVDGPNWLFLTGDKANVDLVLGRIGQFLPSPEQHSTQLIAGDVAGKRWSKIRPDAPPAAIAQRMQLLTQPLAGREGHHHHHH | soluble |
| MSLRGLRGRSFTIGVLLIDIRNPFLPEVIAGVNEVLGPSHYQAMIGVSDARVQLETSLIESMIDYKMDGLILVAPRLPSEILATFAVQIPIVAVGYHDASATAFDTVNAE | soluble |
| MSLRGRTSTLKVAILCFEKDRPKLEALKEILGRSYEVEFVDYSKDVWDDVLQYDCIVAYLASGIVVRGICGRLRGKWKDPAVIVLDKPLKHAVVMLGGHHGGNEVAKKLEEAGLKAVITTAMEFTEGYSVGVGFRKNATADEILEAIAMALEEVGGRMEEIRVISTVDAKRDSAIVEVANRLKRPLIFVRAEEINSMDIRETKAVKIGVKNVAEACAIYASNSGELILPKRVYGGVTVAIAWEGHHHHHH | soluble |
